According to paper doi:10.1101/2020.02.29.971473:

Biological target: human PCNA, purified (immobilised on the GLC chip) (human), P12004
Assay: SPR
Conditions: remark: other sources report otherwise

Chain of human PCNA, purified (immobilised on the GLC chip) (human), P12004 (P12004 whole entry): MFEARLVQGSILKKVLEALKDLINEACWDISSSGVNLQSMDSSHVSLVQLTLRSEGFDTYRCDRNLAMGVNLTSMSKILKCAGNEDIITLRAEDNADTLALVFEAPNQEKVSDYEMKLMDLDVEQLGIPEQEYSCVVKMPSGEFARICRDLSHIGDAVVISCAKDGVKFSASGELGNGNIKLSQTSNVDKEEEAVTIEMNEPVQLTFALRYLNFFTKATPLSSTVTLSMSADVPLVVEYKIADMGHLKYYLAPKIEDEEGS

Kd: 100 nM
response units: 90 RU
B1: p125 (PolD1), catalytic subunit of human DNA polymerase delta, purified, P28340 1-1107 (natural protein)
chain: MDGKRRPGPGPGVPPKRARGGLWDDDDAPRPSQFEEDLALMEEMEAEHRLQEQEEEELQSVLEGVADGQVPPSAIDPRWLRPTPPALDPQTEPLIFQQLEIDHYVGPAQPVPGGPPPSRGSVPVLRAFGVTDEGFSVCCHIHGFAPYFYTPAPPGFGPEHMGDLQRELNLAISRDSRGGRELTGPAVLAVELCSRESMFGYHGHGPSPFLRITVALPRLVAPARRLLEQGIRVAGLGTPSFAPYEANVDFEIRFMVDTDIVGCNWLELPAGKYALRLKEKATQCQLEADVLWSDVVSHPPEGPWQRIAPLRVLSFDIECAGRKGIFPEPERDPVIQICSLGLRWGEPEPFLRLALTLRPCAPILGAKVQSYEKEEDLLQAWSTFIRIMDPDVITGYNIQNFDLPYLISRAQTLKVQTFPFLGRVAGLCSNIRDSSFQSKQTGRRDTKVVSMVGRVQMDMLQVLLREYKLRSYTLNAVSFHFLGEQKEDVQHSIITDLQNGNDQTRRRLAVYCLKDAYLPLRLLERLMVLVNAVEMARVTGVPLSYLLSRGQQVKVVSQLLRQAMHEGLLMPVVKSEGGEDYTGATVIEPLKGYYDVPIATLDFSSLYPSIMMAHNLCYTTLLRPGTAQKLGLTEDQFIRTPTGDEFVKTSVRKGLLPQILENLLSARKRAKAELAKETDPLRRQVLDGRQLALKVSANSVYGFTGAQVGKLPCLEISQSVTGFGRQMIEKTKQLVESKYTVENGYSTSAKVVYGDTDSVMCRFGVSSVAEAMALGREAADWVSGHFPSPIRLEFEKVYFPYLLISKKRYAGLLFSSRPDAHDRMDCKGLEAVRRDNCPLVANLVTASLRRLLIDRDPEGAVAHAQDVISDLLCNRIDISQLVITKELTRAASDYAGKQAHVELAERMRKRDPGSAPSLGDRVPYVIISAAKGVAAYMKSEDPLFVLEHSLPIDTQYYLEQQLAKPLLRIFEPILGEGRAEAVLLRGDHTRCKTVLTGKVGGLLAFAKRRNCCIGCRTVLSHQGAVCEFCQPRESELYQKEVSHLNALEERFSRLWTQCQRCQGSLHEDVICTSRDCPIFYMRKKVRKDLEDQEQLLRRFGPPGPEAW
